Data from article doi:10.1101/2023.01.25.525455 (bioRxiv, 2023).
Several values for one entry are separate records, joined by “and”; a condition that tells them apart may be missing. Equal entries are not always repeated.

B1: synthetic VPS35L peptide (residues Glu16-Ile38) (peptide)
peptide: EFASCRLEAVPLEFGDYHPLKPI
B2: CCDC22-CCDC93 CC1-CC2 complex (CCDC22(325-485) + CCDC93(310-488)), wild type (complex)
chain 1: VTWAAQEQELESLREQLEGVNRSIEEVEADMKTLGVSFVQAESECRHSKLSTAEREQALRLKSRAVELLPDGTANLAKLQLVVENSAQRVIHLAGQWEKHRVPLLAEYRHLRKLQDCRELESSRRLAEIQELHQSVRAAAEEARRKEEVYKQLMSELETLP
chain 2: GTSQLHRRKVISLNKQIAQKTKHLEELRASHTSLQARYNEAKKTLTELKTYSEKLDKEQAALEKIESKADPSILQNLRALVAMNENLKSQEQEFKAHCREEMTRLQQEIENLKAERAPRGDEKTLSSGEPPGTLTSAMTHDEDLDRRYNMEKEKLYKIRLLQARRNREIAILHRKIDEV
B3: VPS35L^28-37 peptide (peptide)
peptide: EFGDYHPLKP

Experiments:
purified VPS29 = purified VPS29 (human, UniProt Q9UBQ0 1-182); experiment: ITC
recombinant DENND10 = recombinant DENND10 (human, UniProt Q8TCE6 1-357); experiment: ITC
Sequence of recombinant DENND10 (Q8TCE6 whole entry): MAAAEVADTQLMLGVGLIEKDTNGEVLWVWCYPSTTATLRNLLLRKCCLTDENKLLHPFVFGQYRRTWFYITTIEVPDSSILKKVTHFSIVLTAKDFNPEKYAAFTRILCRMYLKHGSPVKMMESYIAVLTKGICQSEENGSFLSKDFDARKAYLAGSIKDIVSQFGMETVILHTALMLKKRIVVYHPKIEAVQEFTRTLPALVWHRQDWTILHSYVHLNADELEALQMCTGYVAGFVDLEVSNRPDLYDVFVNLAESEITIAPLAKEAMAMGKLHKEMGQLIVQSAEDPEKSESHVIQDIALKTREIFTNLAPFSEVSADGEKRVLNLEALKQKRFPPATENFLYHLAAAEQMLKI

Binder	Kd (purified VPS29)	Kd (recombinant DENND10) [nM]
B1	1800 nM and 1870 nM	
B2		28 ± 6
B3	6800 nM	
